According to patent publication JP2019147786A (dated 2019):

T1: 可溶性ヒトgp130受容体 (soluble human gp130 receptor, extracellular region with six histidines, made in CHO DG44 cells) (human, UniProt P40189 23-619)
T1 construct: The stated range 1-619 begins at Met 1 and so holds the native signal peptide; also called 可溶性ヒトgp130受容体タンパク質; ヒトgp130受容体
T1 sequence: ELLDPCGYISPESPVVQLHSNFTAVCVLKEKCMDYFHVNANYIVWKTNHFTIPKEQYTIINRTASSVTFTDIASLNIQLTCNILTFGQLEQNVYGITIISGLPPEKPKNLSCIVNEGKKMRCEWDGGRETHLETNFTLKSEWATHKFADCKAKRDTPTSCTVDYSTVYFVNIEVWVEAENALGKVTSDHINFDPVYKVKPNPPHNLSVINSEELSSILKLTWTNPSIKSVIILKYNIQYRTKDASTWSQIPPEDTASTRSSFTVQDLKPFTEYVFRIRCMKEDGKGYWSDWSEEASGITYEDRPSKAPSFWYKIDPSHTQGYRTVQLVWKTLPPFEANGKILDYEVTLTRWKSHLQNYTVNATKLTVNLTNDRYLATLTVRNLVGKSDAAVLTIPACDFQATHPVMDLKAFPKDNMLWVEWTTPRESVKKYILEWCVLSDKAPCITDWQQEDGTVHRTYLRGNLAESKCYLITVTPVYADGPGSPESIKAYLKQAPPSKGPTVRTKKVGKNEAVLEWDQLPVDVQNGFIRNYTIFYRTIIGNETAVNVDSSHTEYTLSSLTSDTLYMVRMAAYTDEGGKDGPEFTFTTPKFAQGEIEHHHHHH

B1: hAH1hAL1 (humanized Fab, VH SEQ ID NO 25, VL SEQ ID NO 76, from pUC-Fab-hAH1hAL1) (Fab, V domains shown)
VH: QVQLQQPGAELVQPGTSVRLSCKASGYTFTDYNMDWVKQRPGQGLEWIGDINSHSGGIIYNQKFKDKATLTVDKSSSTAYMQLSSLTSEDSAVYYCARTYYVYGHFFDYWGQGTLVTVSA
VL: DIQMTQSPSSLSASVGDRVTITCNVSSSVTSMYWYQQKQGKSPQLLVYLTSNLASGVPARFSGSGSGTEFTLTISSLQPDDFATYYCQQWSTNPLTFGAGTKLDLKR
B2: hAH1hAL2 (humanized Fab, VH SEQ ID NO 25, VL SEQ ID NO 77, from pUC-Fab-hAH1hAL2) (Fab, V domains shown)
VH: B1 VH
VL: ELVLTQSPGTLSLSAGERATLSCNVSSSVTSMYWYQQKPGKAPKLLIYLTSNLASGVPSRFSGSGSGTQFSLKINNLQPEDFGSYYCQQWSTNPLTFGAGTKLDLKR
B3: hAH1hAL3 (full-length humanized anti-gp130 receptor antibody, H chain hAH1, L chain hAL3, made in CHO DG44 cells) (antibody, human IgG1, kappa, V domains shown)
VH: B1 VH
VL: DIQMTQSPSSLSASVGDRVTITCNVSSSVTSMYWFQQRPGQAPKVLIYLTSNLASGVPSRFSGSGSGTEFTLTISSLQPDDFATYYCQQWSTNPLTFGQGTKVEIKR
notes: Human IgG1, kappa constant regions; also called ヒト化抗体hAH1hAL3
B4: 抗体A (mouse anti-human gp130 receptor monoclonal antibody from hybridoma) (antibody, mouse IgG1, kappa, V domains shown)
VH: EVLLQQSGPELVKPGASVKIPCKASGYTFTDYNMDWVKQSHGKSLEWIGDINSHSGGIIYNQKFKDKAILTVDKSSSTAYMELRSLTSEDTAVYYCARTYYVYGHFFDYWGQGTTLTVSS
VL: QSVLTQSPAFISASPGEKVTMTCNVSSSVTSMYWYQQKPGSSPKPWIYLTSNLASGVPPRFSGSGSGTSYSLTISSLEAEDAATYYCQQWSTNPLTFGAGTKLELKR
notes: also called マウス抗体A; antibody A
B5: 小型化マウス抗体A (Fab of mouse antibody A, from pUC-Fab-mAHmAL, E. coli) (Fab, V domains shown)
VH: B4 VH
VL: B4 VL
B6: hAH1mAL (Fab: humanized VH hAH1 with the mouse L chain of antibody A, from pUC-Fab-hAH1mAL) (Fab, V domains shown)
VH: B1 VH
VL: B4 VL

Assays:
[1] = biological target: T1, 可溶性ヒトgp130受容体 (soluble human gp130 …); test: SPR (Biacore T200), gp130 amine-coupled on CM5 (235.2 RU), Fab as analyte
[2] = biological target: T1, 可溶性ヒトgp130受容体 (soluble human gp130 …); test: SPR (Biacore T200), gp130 amine-coupled on CM5 (376 RU), full-length IgG as analyte
[3] = biological target: T1, 可溶性ヒトgp130受容体 (soluble human gp130 …); test: ELISA, soluble gp130 coated on the plate, hybridoma supernatant, anti-mouse HRP
[4] = biological target: T1, 可溶性ヒトgp130受容体 (soluble human gp130 …); test: SPR (Biacore T200), gp130 amine-coupled on CM5 (352 RU), Fab as analyte, 25 C

Binder | Kd [1] [nM] | koff [1] [s⁻¹] | kon [1] [M⁻¹ s⁻¹] | Kd [4] [nM] | koff [4] [s⁻¹] | kon [4] [M⁻¹ s⁻¹] | further results
B1 | 0.218 | 5.6e-05 | 257000 |  |  |  | 
B2 | 0.594 | 7.05e-05 | 119000 |  |  |  | 
B3 |  |  |  |  |  |  | Kd [2]: 0.585 nM; koff [2]: 7.25e-05 s⁻¹; kon [2]: 124000 M⁻¹ s⁻¹
B4 |  |  |  |  |  |  | binding result [3]: binds
B5 |  |  |  | 0.598 | 8.42e-05 | 141000 | 
B6 |  |  |  | 0.46 | 8.21e-05 | 178000 | 
